Assay results: patent US20140087995A1 (published 2014)
Numbered stars: 1 amine (or outer) side, 2 acyl side, 3 side chain; on linkers, the order of the positions; unused ones are H or OH. Bridge positions count the residues as written; N and C are the ends. Side chains are listed from the residue outwards. Ends that are not written are not given here. * marks the point of attachment. C20 diacid = O=C(O)CCCCCCCCCCCCCCCCCCC(=O)*; γGlu = O=C(O)[C@H](CCC(=O)[*:2])N[*:1]; AEEA = NCCOCCOCC(=O)O

T1: human amylin receptor (amylin 3(a) receptor: human calcitonin receptor co-expressed with RAMP-3) (human, UniProt P30988 25-474; O60896 24-148, limits assumed)
T1 sequence (looked up) 1: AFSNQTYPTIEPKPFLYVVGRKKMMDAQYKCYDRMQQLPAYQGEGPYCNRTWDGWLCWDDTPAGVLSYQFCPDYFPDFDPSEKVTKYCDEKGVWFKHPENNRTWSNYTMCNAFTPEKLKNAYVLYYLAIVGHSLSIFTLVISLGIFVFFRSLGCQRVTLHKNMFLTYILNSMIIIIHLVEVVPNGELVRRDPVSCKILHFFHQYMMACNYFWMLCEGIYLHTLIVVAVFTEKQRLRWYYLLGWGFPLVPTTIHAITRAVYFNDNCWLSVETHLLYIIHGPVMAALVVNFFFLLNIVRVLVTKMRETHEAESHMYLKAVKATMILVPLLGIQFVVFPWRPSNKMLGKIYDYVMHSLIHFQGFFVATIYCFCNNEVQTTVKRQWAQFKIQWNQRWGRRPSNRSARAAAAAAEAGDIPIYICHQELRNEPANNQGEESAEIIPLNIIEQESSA
T1 sequence (looked up) 2: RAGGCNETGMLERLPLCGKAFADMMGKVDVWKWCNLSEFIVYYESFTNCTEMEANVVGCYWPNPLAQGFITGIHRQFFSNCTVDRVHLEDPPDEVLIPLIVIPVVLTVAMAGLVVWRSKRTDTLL

T2: human calcitonin receptor (human, UniProt P30988 25-474)
T2 sequence (looked up): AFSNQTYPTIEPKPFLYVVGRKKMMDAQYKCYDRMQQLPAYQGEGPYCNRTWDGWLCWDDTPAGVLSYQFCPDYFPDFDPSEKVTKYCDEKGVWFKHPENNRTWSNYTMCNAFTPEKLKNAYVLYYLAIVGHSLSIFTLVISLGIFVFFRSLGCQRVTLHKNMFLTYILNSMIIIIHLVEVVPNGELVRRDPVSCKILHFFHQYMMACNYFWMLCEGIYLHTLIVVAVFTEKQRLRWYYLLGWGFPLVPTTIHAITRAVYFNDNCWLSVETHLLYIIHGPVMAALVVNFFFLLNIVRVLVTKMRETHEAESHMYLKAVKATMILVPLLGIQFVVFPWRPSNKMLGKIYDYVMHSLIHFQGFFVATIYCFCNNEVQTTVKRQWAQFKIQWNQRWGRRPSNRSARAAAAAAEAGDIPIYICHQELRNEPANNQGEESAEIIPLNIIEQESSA


Tests used:
[1] = target: T1, human amylin receptor (amylin 3(a) …); assay: cell-based or functional assay
[2] = target: T2, human calcitonin receptor; assay: cell-based or functional assay

hAmylin-R funct. EC50 [1] [pM]	Ratio hCT/hAmylin funct. (hCTR EC50 against hAmylin-R EC50) [2]	hCTR funct. EC50 [2] [pM]	Binder
85	11.3	961	K([AEEA-γGlu-C20 diacid])CNTATCATQRLASFLRHSSPNFGAIPSSTPVGSNTY-NH2 (disulfide 2-7; N-terminus assumed; SMILES CC[C@H](C)[C@H](NC(=O)[C@H](C)NC(=O)CNC(=O)[C@H](Cc1ccccc1)NC(=O)[C@H](CC(N)=O)NC(=O)[C@@H]1CCCN1C(=O)[C@H](CO)NC(=O)[C@H](CO)NC(=O)[C@H](Cc1c[nH]cn1)NC(=O)[C@H](CCCNC(=N)N)NC(=O)[C@H](CC(C)C)NC(=O)[C@H](Cc1ccccc1)NC(=O)[C@H](CO)NC(=O)[C@H](C)NC(=O)[C@H](CC(C)C)NC(=O)[C@H](CCCNC(=N)N)NC(=O)[C@H](CCC(N)=O)NC(=O)[C@@H](NC(=O)[C@H](C)NC(=O)[C@@H]1CSSC[C@H](NC(=O)[C@@H](N)CCCCNC(=O)COCCOCCNC(=O)CC[C@H](NC(=O)CCCCCCCCCCCCCCCCCCC(=O)O)C(=O)O)C(=O)N[C@@H](CC(N)=O)C(=O)N[C@@H]([C@@H](C)O)C(=O)N[C@@H](C)C(=O)N[C@@H]([C@@H](C)O)C(=O)N1)[C@@H](C)O)C(=O)N1CCC[C@H]1C(=O)N[C@@H](CO)C(=O)N[C@@H](CO)C(=O)N[C@H](C(=O)N1CCC[C@H]1C(=O)N[C@H](C(=O)NCC(=O)N[C@@H](CO)C(=O)N[C@@H](CC(N)=O)C(=O)N[C@H](C(=O)N[C@@H](Cc1ccc(O)cc1)C(N)=O)[C@@H](C)O)C(C)C)[C@@H](C)O, also called compound 73)
296	30.6	9070	K([AEEA-γGlu-C20 diacid])CNTATCATQRLATFLRHSSPNFGAIPSSTPVGSNTY-NH2 (disulfide 2-7; N-terminus assumed; SMILES CC[C@H](C)[C@H](NC(=O)[C@H](C)NC(=O)CNC(=O)[C@H](Cc1ccccc1)NC(=O)[C@H](CC(N)=O)NC(=O)[C@@H]1CCCN1C(=O)[C@H](CO)NC(=O)[C@H](CO)NC(=O)[C@H](Cc1c[nH]cn1)NC(=O)[C@H](CCCNC(=N)N)NC(=O)[C@H](CC(C)C)NC(=O)[C@H](Cc1ccccc1)NC(=O)[C@@H](NC(=O)[C@H](C)NC(=O)[C@H](CC(C)C)NC(=O)[C@H](CCCNC(=N)N)NC(=O)[C@H](CCC(N)=O)NC(=O)[C@@H](NC(=O)[C@H](C)NC(=O)[C@@H]1CSSC[C@H](NC(=O)[C@@H](N)CCCCNC(=O)COCCOCCNC(=O)CC[C@H](NC(=O)CCCCCCCCCCCCCCCCCCC(=O)O)C(=O)O)C(=O)N[C@@H](CC(N)=O)C(=O)N[C@@H]([C@@H](C)O)C(=O)N[C@@H](C)C(=O)N[C@@H]([C@@H](C)O)C(=O)N1)[C@@H](C)O)[C@@H](C)O)C(=O)N1CCC[C@H]1C(=O)N[C@@H](CO)C(=O)N[C@@H](CO)C(=O)N[C@H](C(=O)N1CCC[C@H]1C(=O)N[C@H](C(=O)NCC(=O)N[C@@H](CO)C(=O)N[C@@H](CC(N)=O)C(=O)N[C@H](C(=O)N[C@@H](Cc1ccc(O)cc1)C(N)=O)[C@@H](C)O)C(C)C)[C@@H](C)O, also called compound 75)
